Laboratory results as given in paper PMC9701222, “Molecular basis for DNA recognition by the maternal pioneer transcription factor FoxH1”.

Tests used:
[1] = molecular target: T1, FoxH1 FH domain (species not stated) (UniProt O75593); assay: BLI; conditions: BLI: 20 mM Tris pH 7.6, 100 mM NaCl, 2 mM DTT, 0.02% Tween-20, 0.01% BSA, 25 C; EMSA: 100 mM Tris, 10% glycerol, 7.5 nM Cy5-DNA, 4 C
T1 sequence: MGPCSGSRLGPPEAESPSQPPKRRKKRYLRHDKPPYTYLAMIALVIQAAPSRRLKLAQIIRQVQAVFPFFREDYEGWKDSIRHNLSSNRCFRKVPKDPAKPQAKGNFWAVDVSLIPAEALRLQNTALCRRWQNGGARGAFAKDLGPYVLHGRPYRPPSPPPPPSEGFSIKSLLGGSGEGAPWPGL

[2] = molecular target: T2, hFoxA2 FH (Homo sapiens) (UniProt Q9Y261); assay: BLI; conditions: BLI: 20 mM Tris pH 7.6, 100 mM NaCl, 2 mM DTT, 0.02% Tween-20, 0.01% BSA, 25 C; EMSA: 100 mM Tris, 10% glycerol, 7.5 nM Cy5-DNA, 4 C
T2 sequence: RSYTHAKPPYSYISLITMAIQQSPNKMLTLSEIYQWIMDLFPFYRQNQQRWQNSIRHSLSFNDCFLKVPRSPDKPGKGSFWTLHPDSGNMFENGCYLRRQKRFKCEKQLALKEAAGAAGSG

[3] = molecular target: T3, hFoxA2 FH (Homo sapiens, UniProt Q9Y261 153-273); assay: BLI; BLI: 20 mM Tris pH 7.6, 100 mM NaCl, 2 mM DTT, 0.02% Tween-20, 0.01% BSA, 25 C; EMSA: 100 mM Tris, 10% glycerol, 7.5 nM Cy5-DNA, 4 C; conditions: protein: recombinant; tags: His-SUMO removed (Ulp1); label: 5'-biotin (BLI)
T3 sequence: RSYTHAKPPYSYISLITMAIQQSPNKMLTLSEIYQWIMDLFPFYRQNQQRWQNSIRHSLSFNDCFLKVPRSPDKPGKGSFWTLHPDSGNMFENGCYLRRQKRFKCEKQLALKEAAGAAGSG

[4] = molecular target: T4, dFoxH1 FH (Danio rerio, UniProt Q9I9E1 86-210); assay: X-ray; K+; BLI: 20 mM Tris pH 7.6, 100 mM NaCl, 2 mM DTT, 0.02% Tween-20, 0.01% BSA, 25 C; EMSA: 100 mM Tris, 10% glycerol, 7.5 nM Cy5-DNA, 4 C; conditions: protein: recombinant; tags: His-SUMO removed (Ulp1); blunt
T4 sequence: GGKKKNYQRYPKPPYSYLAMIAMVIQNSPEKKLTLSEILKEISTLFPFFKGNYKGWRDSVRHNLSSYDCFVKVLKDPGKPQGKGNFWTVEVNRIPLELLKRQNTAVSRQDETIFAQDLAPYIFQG

[5] = molecular target: T3, hFoxA2 FH; assay: EMSA; BLI: 20 mM Tris pH 7.6, 100 mM NaCl, 2 mM DTT, 0.02% Tween-20, 0.01% BSA, 25 C; EMSA: 100 mM Tris, 10% glycerol, 7.5 nM Cy5-DNA, 4 C; conditions: protein: recombinant; tags: His-SUMO removed (Ulp1); label: 5'-Cy5
[6] = molecular target: T4, dFoxH1 FH; assay: X-ray; BLI: 20 mM Tris pH 7.6, 100 mM NaCl, 2 mM DTT, 0.02% Tween-20, 0.01% BSA, 25 C; EMSA: 100 mM Tris, 10% glycerol, 7.5 nM Cy5-DNA, 4 C; conditions: protein: recombinant; tags: His-SUMO removed (Ulp1); blunt
[7] = molecular target: T3, hFoxA2 FH; assay: as above; conditions: protein: recombinant; tags: His-SUMO removed (Ulp1); blunt

Q: With “ACAAGGCCTGAAAAGAGATTGTGGATTGCGAATTAATGAAATTAACCTAATCTTTTCCATTCGGCAGCCGGGCCGCGGGCCGGCCGAGCTGGGCGGGCGGCCTAATTGCCTTGGTTAATCTCATTAATTCCTTTGTGCCGCCGCAGTTAACAACTCCCTCCGCCCGA (double strand) [Gsc167 linear DNA]” as the molecule, how does the Kd [1] read?
A: Its Kd is 13 nM.

Q: Which results are given for “ACAAGGCCTGAAAAGAGATTGTGGATTGCGAATTAATGAAATTAACCTAATCTTTTCCATTCGGCAGCCGGGCCGCGGGCCGGCCGAGCTGGGCGGGCGGCCTAATTGCCTTGGTTAATCTCATTAATTCCTTTGTGCCGCCGCAGTTAACAACTCCCTCCGCCCGA (double strand) [Gsc167 nucleosome]”?
A: Kd [1]: 5 nM; Kd [2]: 30 nM

B1: Gsc167 linear DNA (dsDNA)
DNA 1: ACAAGGCCTGAAAAGAGATTGTGGATTGCGAATTAATGAAATTAACCTAATCTTTTCCATTCGGCAGCCGGGCCGCGGGCCGGCCGAGCTGGGCGGGCGGCCTAATTGCCTTGGTTAATCTCATTAATTCCTTTGTGCCGCCGCAGTTAACAACTCCCTCCGCCCGA
DNA 2: TCGGGCGGAGGGAGTTGTTAACTGCGGCGGCACAAAGGAATTAATGAGATTAACCAAGGCAATTAGGCCGCCCGCCCAGCTCGGCCGGCCCGCGGCCCGGCTGCCGAATGGAAAAGATTAGGTTAATTTCATTAATTCGCAATCCACAATCTCTTTTCAGGCCTTGT
Q: How did the Kd [3] turn out when B1 was run?
A: The Kd was 800 nM.

B2: dGSC-GG-16a (dsDNA)
DNA 1: AGATTGTGGATTGAGA
DNA 2: TCTCAATCCACAATCT
Q: Does B2 bind [4]?
A: Result: binds

B3: TT forkhead DNA, 16 bp (EMSA) (dsDNA)
DNA 1: AGATTGTTTACTGAGA
DNA 2: TCTCAGTAAACAATCT
Q: Does B3 bind [5]?
A: Result: binds

B4: FKH-TTACT-GSCflank (dsDNA)
DNA 1: AGATTGTTTACTGAGA
DNA 2: TCTCAGTAAACAATCT
Q: Does B4 bind [6]?
A: Result: binds

Q: Does B4 bind [7]?
A: Result: binds

B5: dGSC-GT-16a (dsDNA)
DNA 1: AGATTGTGTATTGAGA
DNA 2: TCTCAATACACAATCT
Q: Does B5 bind [4]?
A: Result: binds

B6: dGSC-TT-16a (dsDNA)
DNA 1: AGATTGTTTATTGAGA
DNA 2: TCTCAATAAACAATCT
Q: Does B6 bind [6]?
A: Result: binds

Q: Does B6 bind [7]?
A: Result: binds
